One may read the Kd as a measure of binding affinity in units of concentration. Lower therefore signals a tighter complex.

For one molecule, Kd results are on record in patent US20230017515A1 (JIANGSU ALPHAMAB BIOPHARMACEUTICALS, published 2023).

For the assay, the target named is T1, human PD-L1 (WT) (human, UniProt Q9NZQ7 19-127, limits assumed).
T1 construct: also called human PD-L1 N-terminal IgV domain
As to the kind of experiment: affinity measurement, method not stated.

T1 sequence (Q9NZQ7 19-127 limits assumed): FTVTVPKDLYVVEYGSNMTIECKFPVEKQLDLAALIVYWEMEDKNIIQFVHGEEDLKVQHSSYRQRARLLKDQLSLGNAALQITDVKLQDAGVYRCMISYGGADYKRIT

B1: PD-L1 ISVD-9 (VHH)
VHH: QVQLVESGGGLVQPGGSLRLSCAASGKMSSRRCMAWFRQAPGKERERVAKLLTTSGSTYLADSVKGRFTISRDNSKNTVYLQMNSLRAEDTAVYYCAADSFEDPTCTLVTSSGAFQYWGQGTLVTVSS
notes: also called ISVD specific for PD-L1; aPDL1.9
B1 came in with a Kd of 5.92 nM.
